According to patent US20090246142A1 (published 2009):
Square brackets hold non-standard residues; d marks the D form. pY = N[C@@H](Cc1ccc(OP(=O)(O)O)cc1)C(=O)O; Ahx = NCCCCCC(=O)O

B1: TAMRA-(Ahx)EAIpYAAPFAKKKC-CONH2 (non-binding Abl substrate, phosphorylated) on nanoparticles (peptide)
peptide: {TAMRA-Ahx}-EAI[pY]AAPFAKKKC-NH2
modifications: not fully specified (residue 13); also: Cys conjugated to nanoparticle via NHS-PEO12-maleimide
B2: TAMRA-(Ahx)SRVGEEEHVFSFPNKQKSAEC-CONH2 (Abl substrate with the tyrosine replaced by phenylalanine) on nanoparticles (F-Abl TSACs) (peptide)
peptide: {TAMRA-Ahx}-SRVGEEEHVFSFPNKQKSAEC-NH2
modifications: not fully specified (residue 21); printed as TAMRA-(Ahx)SRVGEEEHVFSFPNKQKSAEC-CONH2; also: Cys conjugated to nanoparticle via NHS-PEO12-maleimide
notes: also called phenylalanine-Abl substrate TSACs; phenylalanine substrate TSACs

Key:
[1] = biological target: T1, Crk SH2 domain with an N-terminal cysteine (cys-SH2), conjugated to iron oxide nanoparticles (SH2 TSACs) (UniProt P46108 13-118, limits assumed, N-terminal cysteine added by genetic modification and conjugated to aminated nanoparticles through NHS-PEO12-maleimide); assay: DLS of nanoparticle assembly
T1 construct: domain: SH2 domain; also called cysteine-SH2; Crk-SH2 TSACs

[2] = biological target: T1, Crk SH2 domain with an N-terminal …; assay: DLS of nanoparticle assembly in the presence of Abl kinase

T1 sequence (P46108 13-118 limits assumed): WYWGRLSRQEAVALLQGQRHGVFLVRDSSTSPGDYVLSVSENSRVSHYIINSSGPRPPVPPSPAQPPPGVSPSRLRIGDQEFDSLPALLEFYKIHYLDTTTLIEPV

Binder	binding result [1]	binding result [2]
B1	no binding (tested: 10 µg Fe/ml (12 nM TSAC concentration))	–
B2	–	no binding (tested: 10 µg Fe/ml (12 nM TSAC concentration))
